Assay results taken from paper PMC4012331 (Biochimica et biophysica acta, 2013).

How the values were obtained:
[1] = biological target: T1, flavodoxin (Fld); apo-Fld (Escherichia coli, UniProt P61949); assay: isothermal titration calorimetry; format: binding
T1 sequence (P61949 2-176): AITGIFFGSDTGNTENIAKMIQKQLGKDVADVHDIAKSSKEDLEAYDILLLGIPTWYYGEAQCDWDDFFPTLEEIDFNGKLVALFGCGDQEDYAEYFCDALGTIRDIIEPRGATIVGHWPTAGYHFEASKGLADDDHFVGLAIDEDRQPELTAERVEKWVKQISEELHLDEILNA

[2] = biological target: NADP+-dependent flavodoxin oxidoreductase (FNR), Escherichia coli (E. coli) (UniProt P28861); assay: SPR
Chain of NADP+-dependent flavodoxin oxidoreductase (FNR), Escherichia coli (E. coli) (P28861 whole entry): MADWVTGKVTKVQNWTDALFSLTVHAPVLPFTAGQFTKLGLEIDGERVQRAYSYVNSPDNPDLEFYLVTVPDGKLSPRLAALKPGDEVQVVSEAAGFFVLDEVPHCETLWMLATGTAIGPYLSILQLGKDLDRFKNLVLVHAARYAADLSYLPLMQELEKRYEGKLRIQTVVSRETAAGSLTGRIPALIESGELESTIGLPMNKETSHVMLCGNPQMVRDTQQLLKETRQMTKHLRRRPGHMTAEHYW

[3] = biological target: pyruvate formate-lyase activating enzyme (PFL-AE), Escherichia coli (Escherichia coli) (UniProt P0A9N6); assay: SPR
Chain of pyruvate formate-lyase activating enzyme (PFL-AE), Escherichia coli (Escherichia coli) (P0A9N6 2-246): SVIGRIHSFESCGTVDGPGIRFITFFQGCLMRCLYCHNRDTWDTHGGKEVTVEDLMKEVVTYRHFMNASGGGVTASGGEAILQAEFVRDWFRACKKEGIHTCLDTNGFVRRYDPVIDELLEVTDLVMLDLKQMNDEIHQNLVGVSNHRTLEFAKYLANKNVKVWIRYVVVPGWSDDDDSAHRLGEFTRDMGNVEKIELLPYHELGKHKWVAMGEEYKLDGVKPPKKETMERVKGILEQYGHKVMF

| Kd [1] [µM] | Compound | Kd [2] [µM] | Kd [3] [µM] |
| --- | --- | --- | --- |
| 0.0056 ± 0.0012 | Cc1cc2nc3c(=O)[nH]c(=O)nc-3n(C[C@H](O)[C@H](O)[C@H](O)COP(=O)(O)O)c2cc1C [FMN] | – | – |
| – | holo-flavodoxin (Fld with bound FMN cofactor), Escherichia coli (from UniProt P61949 2-176) (natural protein) | 3.7 | 23.3 |
